Measured values as given in paper doi:10.1101/2025.11.11.687647v1.

Substrate: CC(=O)C(=O)O
Assay: purified protein
Settings: pH 8.0; 25.0 °C

B1: MtPC (Mycobacterium tuberculosis pyruvate carboxylase) (Mycobacterium tuberculosis H37Rv) (protein)
chain: MFSKVLVANRGEIAIRAFRAAYELGVGTVAVYPYEDRNSQHRLKADESYQIGDIGHPVHAYLSVDEIVATARRAGADAIYPGYGFLSENPDLAAACAAAGISFVGPSAEVLELAGNKSRAIAAAREAGLPVLMSSAPSASVDELLSVAAGMPFPLFVKAVAGGGGRGMRRVGDIAALPEAIEAASREAESAFGDPTVYLEQAVINPRHIEVQILADNLGDVIHLYERDCSVQRRHQKVIELAPAPHLDAELRYKMCVDAVAFARHIGYSCAGTVEFLLDERGEYVFIEMNPRVQVEHTVTEEITDVDLVASQLRIAAGETLEQLGLRQEDIAPHGAALQCRITTEDPANGFRPDTGRISALRTAGGAGVRLDGSTNLGAEISPYFDSMLVKLTCRGRDLPTAVSRARRAIAEFRIRGVSTNIPFLQAVLDDPDFRAGRVTTSFIDERPQLLTARASADRGTKILNFLADVTVNNPYGSRPSTIYPDDKLPDLDLRAAPPAGSKQRLVKLGPEGFARWLRESAAVGVTDTTFRDAHQSLLATRVRTSGLSRVAPYLARTMPQLLSVECWGGATYDVALRFLKEDPWERLATLRAAMPNICLQMLLRGRNTVGYTPYPEIVTSAFVQEATATGIDIFRIFDALNNIESMRPAIDAVRETGSAIAEVAMCYTGDLTDPGEQLYTLDYYLKLAEQIVDAGAHVLAIKDMAGLLRPPAAQRLVSALRSRFDLPVHLHTHDTPGGQLASYVAAWHAGADAVDGAAAPLAGTTSQPALSSIVAAAAHTEYDTGLSLSAVCALEPYWEALRKVYAPFESGLPGPTGRVYHHEIPGGQLSNLRQQAIALGLGDRFEEIEEAYAGADRVLGRLVKVTPTSKVVGDLALALVGAGVSADEFASDPARFGIPESVLGFLRGELGDPPGGWPEPLRTAALAGRGAARPTAQLAADDEIALSSVGAKRQATLNRLLFPSPTKEFNEHREAYGDTSQLSANQFFYGLRQGEEHRVKLERGVELLIGLEAISEPDERGMRTVMCILNGQLRPVLVRDRSIASAVPAAEKADRGNPGHIAAPFAGVVTVGVCVGERVGAGQTIATIEAMKMEAPITAPVAGTVERVAVSDTAQVEGGDLLVVVS
  Km: 2310 µM
